The supplement of paper PMC10201428
± gives the standard deviation of the averaged measurements.

Tests used:
[1] = test system: VchCAST RNA-guided transposition machinery (E. coli BL21(DE3) host, lacZ target); test: relative integration efficiency (T-RL orientation) vs wild-type transposon end (log2 (normalized fold change)); transposon end mutated: right end (5 bp flank + 75 bp right end); higher = more efficient transposition
Method in brief: (§1)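 Each barcoded pool, 1549 left-end or 1849 right-end transposon variants in a pUC57 mini-transposon donor, went into E. coli BL21(DE3) with a T7-driven effector plasmid (CRISPR array, tniQ-cas8-cas7-cas6, tnsA-tnsB-tnsC). Plates contained 0.1 mM IPTG and were held at 37°C for 18 h. Input plasmids and genomic integration junctions were PCR-amplified and read by Illumina sequencing, with two biological output replicates and four reference barcodes. Relative integration efficiency is the fold change of output over input barcode abundance, normalised to the reference barcodes and log-transformed.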

[2] = test system: VchCAST RNA-guided transposition machinery (E. coli BL21(DE3) host, lacZ target); test: relative integration efficiency (T-LR orientation) vs wild-type transposon end (log2 (normalized fold change)); transposon end mutated: right end (5 bp flank + 75 bp right end); higher = more efficient transposition
Method in brief: as §1

| Sequence | relative integration efficiency (log2) [1] | relative integration efficiency (log2) [2] |
| --- | --- | --- |
| ACATTTGTTGATACAACCATAAAATGATCATTACACCCATAAATTGATAATTATCCCACCCCATTTAACTATAACGCTCTGATCATAGTCAGACCAACATTGCTACGACCCGTATTCGCACCGACAC | -1.84 ± 0.31 | 1.87 ± 0.062 |
| ACATTTGTTGATACAACCATAAAATGATCATTACACCCATAAATTGATCATTATCACACCCATAAATTGATCTTGCCTCTGATCATAGTCAGACCAACATTGCTACGACCCGTATTCGCACCGACAC | -1.214 ± 0.0037 | -0.7415 ± 0.00084 |
| ACATTTGTTGATACAACCATAAAATGATCATTACACCCATCAATTGATAATTATCACACCCAATTTAACTATAACGCTCTGATCATAGTCAGACCAACATTGCTACGACCCGTATTCGCACCGACAC | -2.98 ± 0.5 | 0.697 ± 0.18 |
| ACATTTGTTGATACAACCATAAAATGATCATTACACCCATCAATTGATAATTATCACACCCCATTTAACTATAACGCTCTGATCATAGTCAGACCAACATTGCTACGACCCGTATTCGCACCGACAC | -2.76 ± 0.2 | 0.914 ± 0.34 |
| ACATTTGTTGATACAACCATAAAATGATCATTACACCCATCAATTGATAATTATCCCACCCAATTTAACTATAACGCTCTGATCATAGTCAGACCAACATTGCTACGACCCGTATTCGCACCGACAC | -2.65 ± 0.42 | 0.874 ± 0.13 |
| ACATTTGTTGATACAACCATAAAATGATCATTACACCCATCAATTGATAATTATCCCACCCCATTTAACTATAACGCTCTGATCATAGTCAGACCAACATTGCTACGACCCGTATTCGCACCGACAC | -2.65 ± 0.32 | 1.04 ± 0.071 |
| ACATTTGTTGATACAACCATAAAATGATCATTACCCCCATAAATTGATAATTATCACACCCAATTTAACTATAACGCTCTGATCATAGTCAGACCAACATTGCTACGACCCGTATTCGCACCGACAC | -1.95 ± 0.25 | 1.59 ± 0.045 |
| ACATTTGTTGATACAACCATAAAATGATCATTACCCCCATAAATTGATAATTATCACACCCCATTTAACTATAACGCTCTGATCATAGTCAGACCAACATTGCTACGACCCGTATTCGCACCGACAC | -1.23 ± 0.22 | 2.423 ± 0.013 |
| ACATTTGTTGATACAACCATAAAATGATCATTACCCCCATAAATTGATAATTATCCCACCCAATTTAACTATAACGCTCTGATCATAGTCAGACCAACATTGCTACGACCCGTATTCGCACCGACAC | -2.11 ± 0.51 | 1.58 ± 0.2 |
| ACATTTGTTGATACAACCATAAAATGATCATTACCCCCATAAATTGATAATTATCCCACCCCATTTAACTATAACGCTCTGATCATAGTCAGACCAACATTGCTACGACCCGTATTCGCACCGACAC | -1.91 ± 0.36 | 1.86 ± 0.02 |
| ACATTTGTTGATACAACCATAAAATGATCATTACCCCCATCAATTGATAATTATCACACCCAATTTAACTATAACGCTCTGATCATAGTCAGACCAACATTGCTACGACCCGTATTCGCACCGACAC | -3.35 ± 0.24 | -0.291 ± 0.3 |
| ACATTTGTTGATACAACCATAAAATGATCATTACCCCCATCAATTGATAATTATCACACCCCATTTAACTATAACGCTCTGATCATAGTCAGACCAACATTGCTACGACCCGTATTCGCACCGACAC | -3.74 ± 0.21 | -0.533 ± 0.18 |
| ACATTTGTTGATACAACCATAAAATGATCATTACCCCCATCAATTGATAATTATCCCACCCAATTTAACTATAACGCTCTGATCATAGTCAGACCAACATTGCTACGACCCGTATTCGCACCGACAC | -3.71 ± 0.29 | 0.227 ± 0.14 |
| ACATTTGTTGATACAACCATAAAATGATCATTACCCCCATCAATTGATAATTATCCCACCCCATTTAACTATAACGCTCTGATCATAGTCAGACCAACATTGCTACGACCCGTATTCGCACCGACAC | -3.97 ± 0.23 | -0.338 ± 0.22 |
| ACATTTGTTGATACAACCATAAAATGATCATTCACCCATAAATTGATAATTATCACACCCACATTTAACTATAACGCTCTGATCATAGTCAGACCAACATTGCTACGACCCGTATTCGCACCGACAC | -3.25 ± 0.26 | 0.654 ± 0.11 |
| ACATTTGTTGATACAACCATAAAATGATCATTCACCCCTAAATTGATAATTATCACACCCACATTTAACTATAACGCTCTGATCATAGTCAGACCAACATTGCTACGACCCGTATTCGCACCGACAC | -4.31 ± 0.082 | -0.712 ± 0.069 |
| ACATTTGTTGATACAACCATAAAATGATCCGGACACCCATAAATTGATAATTATCACACCCATAAATTGATATTGCCTCTGATCATAGTCAGACCAACATTGCTACGACCCGTATTCGCACCGACAC | -1.23 ± 0.15 | -0.898 ± 0.013 |
| ACATTTGTTGATACAACCATAAAATGATCCGGCACAAACGCCCGGTCGCCGGCGACACAAACGCCCGGTCGCGGTAAGAGGATCATAGTCAGACCAACATTGCTACGACCCGTATTCGCACCGACAC | -2.68 ± 0.12 | 0.37 ± 0.064 |

| Sequence | relative integration efficiency (log2) [1] | relative integration efficiency (log2) [2] |
| --- | --- | --- |
| ACATTTGTTGATACAACCATAAAATGATCCGGCCACCCATAAATTGATCCGGCTCACACCCATAAATTGATCGGTACTCTGATCATAGTCAGACCAACATTGCTACGACCCGTATTCGCACCGACAC | -2.73 ± 0.41 | -0.827 ± 0.14 |
| ACATTTGTTGATACAACCATAAAATGATCCTTACACCCATAAATTGATAATTATCACACCCATAAATTGATATTGCCTCTGATCATAGTCAGACCAACATTGCTACGACCCGTATTCGCACCGACAC | -1.03 ± 0.14 | -0.545 ± 0.46 |
| ACATTTGTTGATACAACCATAAAATGATTATTACACCCATAAATTGATAATAATGACACCGAATTTAACTATAACGCTCTGATCATAGTCAGACCAACATTGCTACGACCCGTATTCGCACCGACAC | -0.616 ± 0.36 | 2.95 ± 0.061 |
| ACATTTGTTGATACAACCATAAAATGATTATTACACCCATAAATTGATAATGATGACACCGAATTTAACTATAACGCTCTGATCATAGTCAGACCAACATTGCTACGACCCGTATTCGCACCGACAC | -1.31 ± 0.35 | 2.38 ± 0.12 |
| ACATTTGTTGATACAACCATAAAATGATTATTACACCCATAAATTGATAATTGTGACACCGAATTTAACTATAACGCTCTGATCATAGTCAGACCAACATTGCTACGACCCGTATTCGCACCGACAC | -1.18 ± 0.23 | 2.3 ± 0.095 |
| ACATTTGTTGATACAACCATAAAATGATTATTACACCCATAAATTGATTATTATCACACCCATAAATTGATTTTGCCTCTGATCATAGTCAGACCAACATTGCTACGACCCGTATTCGCACCGACAC | -0.91 ± 0.14 | 0.0804 ± 0.34 |
| ACATTTGTTGATACAACCATAAAATGATTATTACACCCATTAATTGATAATTATCACACCCAATTTAACTATAACGCTCTGATCATAGTCAGACCAACATTGCTACGACCCGTATTCGCACCGACAC | -1.4 ± 0.34 | 2.31 ± 0.036 |
| ACATTTGTTGATACAACCATAAAATGATTTAAACACCCATAAATTGATAATTATCACACCCATAAATTGATATTGCCTCTGATCATAGTCAGACCAACATTGCTACGACCCGTATTCGCACCGACAC | -0.3814 ± 0.0024 | -0.234 ± 0.29 |
| ACATTTGTTGATACAACCATAAAATGATTTAATCACCCATAAATTGATTTAATTCACACCCATAAATTGATTAACGCTCTGATCATAGTCAGACCAACATTGCTACGACCCGTATTCGCACCGACAC | -1.13 ± 0.18 | -0.00841 ± 0.34 |
| ACATTTGTTGATACAACCATAAAATGATTTTTACACCCATAAATTGATAATTATCACACCCATAAATTGATATTGCCTCTGATCATAGTCAGACCAACATTGCTACGACCCGTATTCGCACCGACAC | -0.483 ± 0.081 | 0.183 ± 0.26 |
| ACATTTGTTGATACAACCATAAAATGCGAATTACACCCATAAATTGATAATTATCACACCCATAAATTGATATTGCCTCTGATCATAGTCAGACCAACATTGCTACGACCCGTATTCGCACCGACAC | -0.945 ± 0.22 | -0.35 ± 0.095 |
| ACATTTGTTGATACAACCATAAAATGCGCCGGCACAAACGCCCGGTCGCCGGCGACACAAACGCCCGGTCGCGGTAAGAGGATCATAGTCAGACCAACATTGCTACGACCCGTATTCGCACCGACAC | -3.75 ± 0.078 | -0.733 ± 0.15 |
| ACATTTGTTGATACAACCATAAAATGCGCCGGCCACCCATAAATTGCGCCGGCTCACACCCATAAATTGCGCGGTACTCTGATCATAGTCAGACCAACATTGCTACGACCCGTATTCGCACCGACAC | -5.16 ± 0.24 | -3.06 ± 0.22 |
| ACATTTGTTGATACAACCATAAAATGCGCCTTACACCCATAAATTGATAATTATCACACCCATAAATTGATATTGCCTCTGATCATAGTCAGACCAACATTGCTACGACCCGTATTCGCACCGACAC | -1.4 ± 0.083 | -1.01 ± 0.31 |
| ACATTTGTTGATACAACCATAAAATGCTAATTACACCCATAAATTGCTAATTATCACACCCATAAATTGCTATTGCCTCTGATCATAGTCAGACCAACATTGCTACGACCCGTATTCGCACCGACAC | -1.55 ± 0.13 | -0.567 ± 0.21 |
| ACATTTGTTGATACAACCATAAAATGGTAATTACACCCATACATTGATAATTATCACACCCAATTTAACTATAACGCTCTGATCATAGTCAGACCAACATTGCTACGACCCGTATTCGCACCGACAC | -2.58 ± 0.27 | 0.71 ± 0.05 |
| ACATTTGTTGATACAACCATAAAATGGTAATTACACCCCTAAATTGATAATTATCACACCCAATTTAACTATAACGCTCTGATCATAGTCAGACCAACATTGCTACGACCCGTATTCGCACCGACAC | -3.07 ± 0.34 | 0.104 ± 0.26 |
